Laboratory results: patent publication US20090281042A1 (priority 2005, published 2009)
Read-outs that look alike come from different tables or passages of the source. Ends that are not written are not given here.

Legend:
HCV NS3 protease [1] = target: T1, HCV NS3 protease (Hepatitis C virus genotype 1b, UniProt P26663); conditions: mean ± S.D., cited from earlier work
T1 construct: In the case of HCV NS3 protease the site is NS5A/B

HCV NS3 protease [2] = target: T1, HCV NS3 protease; conditions: cited from earlier work
E. coli lysate = type: biochemical; conditions: FIG. 5
SARS 3CL protease = SARS 3CL protease (Severe acute respiratory syndrome coronavirus, UniProt P0C6X7)
HRV 3C protease = HRV 3C protease (Human rhinovirus 16, UniProt Q82122); type: biochemical, HRV 16
[3] = Table 7, NS3 + Pep4A, modified decamer peptides vs wild type DEMEECASHL
[4] = Table 7, NS3 alone, modified decamer peptides vs wild type DEMEECASHL
[5] = NS3 + Pep4A, P6 and P1′-modified NS4A/NS4B decamer peptides
[6] = NS3 alone, P6 and P1′-modified NS4A/NS4B decamer peptides

T1 sequence (P26663 1027-1208, other chains not shown): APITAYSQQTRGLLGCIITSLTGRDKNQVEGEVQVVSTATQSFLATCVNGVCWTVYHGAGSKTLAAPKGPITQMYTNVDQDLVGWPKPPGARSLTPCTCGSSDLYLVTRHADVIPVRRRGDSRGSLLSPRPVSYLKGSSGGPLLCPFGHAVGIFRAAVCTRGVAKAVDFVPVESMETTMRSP

O=C(O)CN(CCN(CC(=O)O)CC(=O)O)CC(=O)O [EDTA]
effect of protease inhibitor on cleavage of Pep1 (HeLa lysate): partially inhibited

O=C(O)CN(CCOCCOCCN(CC(=O)O)CC(=O)O)CC(=O)O [EGTA]
effect of protease inhibitor on cleavage of Pep1 (HeLa lysate; Pep1 as substrate): partially inhibited

O=S(=O)(F)Cc1ccccc1 [PMSF]
effect of protease inhibitor on cleavage of Pep1 (HeLa lysate; Pep1 as substrate): relative insensitivity

AEMEECASHL
Km (HCV NS3 protease [1]; [3]): 55 ± 11 µM
kcat (HCV NS3 protease [1]; [3]): 0.90 ± 0.06 min⁻¹
Km (HCV NS3 protease [1]; [4]): 125 ± 28 µM
kcat (HCV NS3 protease [1]; [4]): 0.10 ± 0.02 min⁻¹

Aprotinin
effect of protease inhibitor on cleavage of Pep1 (HeLa lysate; Pep1 as substrate): relative insensitivity

BTLEFCSñSY [Pep B5s]
Keat (HCV NS3 protease [2]; absence (−) of 150 mM Nacl): 23 min⁻¹
Km (HCV NS3 protease [2]; absence (−) of 150 mM Nacl): 3.5 µM
Keat (HCV NS3 protease [2]; presence (+) of 150 mM Nacl): 36 min⁻¹
Km (HCV NS3 protease [2]; presence (+) of 150 mM Nacl): 27 µM

DAMEECASHL
Km (HCV NS3 protease [1]; [3]): 143 ± 27 µM
kcat (HCV NS3 protease [1]; [3]): 2.73 ± 0.84 min⁻¹
Km (HCV NS3 protease [1]; [4]): 569 ± 150 µM
kcat (HCV NS3 protease [1]; [4]): 0.86 ± 0.46 min⁻¹

DEAEECASHL
Km (HCV NS3 protease [1]; [3]): 124 ± 22 µM
kcat (HCV NS3 protease [1]; [3]): 2.13 ± 0.30 min⁻¹
Km (HCV NS3 protease [1]; [4]): 409 ± 24 µM
kcat (HCV NS3 protease [1]; [4]): 0.30 ± 0.02 min⁻¹

DEMAECASHL
Km (HCV NS3 protease [1]; [3]): 190 ± 35 µM
kcat (HCV NS3 protease [1]; [3]): 2.81 ± 0.66 min⁻¹
Km (HCV NS3 protease [1]; [4]): 790 ± 205 µM
kcat (HCV NS3 protease [1]; [4]): 0.33 ± 0.06 min⁻¹

DEMEACASHL
Km (HCV NS3 protease [1]; [3]): 148 ± 44 µM
kcat (HCV NS3 protease [1]; [3]): 2.59 ± 0.60 min⁻¹
Km (HCV NS3 protease [1]; [4]): 171 ± 23 µM
kcat (HCV NS3 protease [1]; [4]): 0.26 ± 0.01 min⁻¹

DEMEEAASHL
kcat (HCV NS3 protease [1]; [3]): not cleaved
kcat (HCV NS3 protease [1]; [4]): not cleaved

DEMEECAAHL
Km (HCV NS3 protease [1]; [3]): 144 ± 5.6 µM
kcat (HCV NS3 protease [1]; [3]): 3.08 ± 0.15 min⁻¹
Km (HCV NS3 protease [1]; [4]): 191 ± 11 µM
kcat (HCV NS3 protease [1]; [4]): 0.67 ± 0.04 min⁻¹

DEMEECASAL
Km (HCV NS3 protease [1]; [3]): 130 ± 15 µM
kcat (HCV NS3 protease [1]; [3]): 3.61 ± 0.96 min⁻¹
Km (HCV NS3 protease [1]; [4]): 231 ± 39 µM
kcat (HCV NS3 protease [1]; [4]): 0.85 ± 0.16 min⁻¹

DEMEECASHA
Km (HCV NS3 protease [1]; [3]): 219 ± 10 µM
kcat (HCV NS3 protease [1]; [3]): 3.00 ± 0.94 min⁻¹
Km (HCV NS3 protease [1]; [4]): 260 ± 37 µM
kcat (HCV NS3 protease [1]; [4]): 0.58 ± 0.12 min⁻¹

DEMEECASHL
Km (HCV NS3 protease [1]; [5]): 42.8 ± 4.1 µM
kcat (HCV NS3 protease [1]; [5]): 1.4 ± 0.07 min⁻¹
Km (HCV NS3 protease [1]; [6]): 105 ± 20 µM
kcat (HCV NS3 protease [1]; [6]): 0.26 ± 0.03 min⁻¹
Km (HCV NS3 protease [1]; [3]): 42.8 ± 4.1 µM
kcat (HCV NS3 protease [1]; [3]): 1.40 ± 0.07 min⁻¹
Km (HCV NS3 protease [1]; [4]): 105 ± 20 µM
kcat (HCV NS3 protease [1]; [4]): 0.26 ± 0.03 min⁻¹

DEMEECASHL [NS4A/4Bs]
Keat (HCV NS3 protease [2]; absence (−) of 150 mM Nacl): 4 min⁻¹
Km (HCV NS3 protease [2]; absence (−) of 150 mM Nacl): 10 µM
Keat (HCV NS3 protease [2]; presence (+) of 150 mM Nacl): 4 min⁻¹
Km (HCV NS3 protease [2]; presence (+) of 150 mM Nacl): 500 µM

DEMEECFSHL
Km (HCV NS3 protease [1]; [5]): 156 ± 54 µM
kcat (HCV NS3 protease [1]; [5]): 0.20 ± 0.02 min⁻¹

DEMEECSSHL
Km (HCV NS3 protease [1]; [5]): 246 ± 54 µM
kcat (HCV NS3 protease [1]; [5]): 1.66 ± 0.22 min⁻¹
Km (HCV NS3 protease [1]; [6]): 273 ± 21 µM
kcat (HCV NS3 protease [1]; [6]): 0.32 ± 0.01 min⁻¹

EDVVaCSñSY [B14s(NS5A/B)]
Keat (HCV NS3 protease [2]; absence (−) of 150 mM Nacl): 34 min⁻¹
Km (HCV NS3 protease [2]; absence (−) of 150 mM Nacl): 4 µM
Keat (HCV NS3 protease [2]; presence (+) of 150 mM Nacl): 47 min⁻¹
Km (HCV NS3 protease [2]; presence (+) of 150 mM Nacl): 10 µM

EEMEECASHL
Km (HCV NS3 protease [1]; [5]): 166 ± 15 µM
kcat (HCV NS3 protease [1]; [5]): 2.89 ± 0.20 min⁻¹
Km (HCV NS3 protease [1]; [6]): 254 ± 44 µM
kcat (HCV NS3 protease [1]; [6]): 0.64 ± 0.04 min⁻¹

ENSVPCSñSY (not fully specified (C-terminus); printed as ENSVPCSñSY; also: code ñ has no stated meaning) [Pep B28s, substrate peptide for HCV NS3 protease based on selected cleavage site]
Keat (HCV NS3 protease [2]; absence (−) of 150 mM Nacl): 4 min⁻¹
Km (HCV NS3 protease [2]; absence (−) of 150 mM Nacl): 15 µM
Keat (HCV NS3 protease [2]; presence (+) of 150 mM Nacl): 14.5 min⁻¹
Km (HCV NS3 protease [2]; presence (+) of 150 mM Nacl): 56 µM

EQVVRCSñSY (not fully specified (C-terminus); printed as EQVVRCSñSY; also: code ñ has no stated meaning) [Pep B8s, substrate peptide for HCV NS3 protease based on selected cleavage site]
Keat (HCV NS3 protease [2]; absence (−) of 150 mM Nacl): 3 min⁻¹
Km (HCV NS3 protease [2]; absence (−) of 150 mM Nacl): 7 µM
Keat (HCV NS3 protease [2]; presence (+) of 150 mM Nacl): 10.5 min⁻¹
Km (HCV NS3 protease [2]; presence (+) of 150 mM Nacl): 21 µM

ERLVLCSñSY (not fully specified (C-terminus); printed as ERLVLCSñSY; also: code ñ has no stated meaning) [Pep B19s, substrate peptide for HCV NS3 protease based on selected cleavage site]
Keat (HCV NS3 protease [2]; absence (−) of 150 mM Nacl): 30 min⁻¹
Km (HCV NS3 protease [2]; absence (−) of 150 mM Nacl): 11 µM
Keat (HCV NS3 protease [2]; presence (+) of 150 mM Nacl): 49 min⁻¹
Km (HCV NS3 protease [2]; presence (+) of 150 mM Nacl): 12 µM

ERVVLCSñSY (not fully specified (C-terminus); printed as ERVVLCSñSY; also: code ñ has no stated meaning) [Pep B15s, substrate peptide for HCV NS3 protease based on selected cleavage site]
Keat (HCV NS3 protease [2]; absence (−) of 150 mM Nacl): 30 min⁻¹
Km (HCV NS3 protease [2]; absence (−) of 150 mM Nacl): 30 µM
Keat (HCV NS3 protease [2]; presence (+) of 150 mM Nacl): 44.5 min⁻¹
Km (HCV NS3 protease [2]; presence (+) of 150 mM Nacl): 13 µM

KEMEECASHL
Km (HCV NS3 protease [1]; [5]): 449 ± 91 µM
kcat (HCV NS3 protease [1]; [5]): 2.68 ± 0.02 min⁻¹
Km (HCV NS3 protease [1]; [6]): 1050 ± 430 µM
kcat (HCV NS3 protease [1]; [6]): 0.26 ± 0.10 min⁻¹

NEMEECASHL
Km (HCV NS3 protease [1]; [5]): 188 ± 44 µM
kcat (HCV NS3 protease [1]; [5]): 2.90 ± 0.46 min⁻¹
Km (HCV NS3 protease [1]; [6]): 630 ± 62 µM
kcat (HCV NS3 protease [1]; [6]): 0.37 ± 0.25 min⁻¹

Pep1: designed fluorescent (EDANS/DABCYL) 3C protease substrate based on multiple HRV 3C cleavage sites and bioinformatics, Table 14 (LEALFQGPDSQ; not fully specified)
cleavage reaction with E. coli lysate (E. coli lysate): absence of any detectable cleavage reaction
cleavage reaction with SARS 3CL lysate (SARS 3CL protease): absence of any detectable cleavage reaction
duration of linear kinetics (HRV 3C protease): at least 3 minutes
effect of nasal wash on substrate cleavage by recombinant HRV 3C (HRV 3C protease): absence of effect
lower limit of protease detection (HRV 3C protease): 0.5 to 1.0 nM
specificity of substrate for cleavage with HRV 3C protease (HRV 3C protease): absolute specificity
substrate cleavage compared to the native cleavage site (Ori 2) (HRV 3C protease): superior substrate cleavage
substrate exhibiting the most rapid kinetics out of Pep 1-Pep 9 (HRV 3C protease): most rapid kinetics
